Patent publication US20140206849A1 (Alexion, published 2014)

Legend:
[1] = target: T1, human C5a (human, UniProt P01031 678-751); test: SPR (Biacore), 'under similar conditions' to the humanized antibody; murine antibody
T1 sequence (looked up): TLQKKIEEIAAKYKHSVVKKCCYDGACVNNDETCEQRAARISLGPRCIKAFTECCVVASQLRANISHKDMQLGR

[2] = target: T1, human C5a; test: SPR (Biacore), antibody captured by anti-human Fc on CM5 chip, human C5a 0.6-5.9 nM in solution, 1:1 Langmuir fit; humanized antibody
Text: The humanized antibody was subjected to BIAcore analysis to quantify its affinity for human C5a, in part, to determine if humanization affected the binding affinity of the antibody for its antigen. See, e.g., Karlsson and Larsson (2004) Methods Mol Biol 248:389-415. Briefly, the humanized antibody was screened with 3-4 concentrations of human C5a (antigen) using a capture technique. The antibody was captured by an anti-Fc (human) antibody directly immobilized on a CM5 sensor chip with various concentrations in the range from 0.6 nM to 5.9 nM of human C5a passed over the sensor chip surface. The surface was regenerated with 20 mM HCl, 0.02% P20 after each cycle to remove bound antibody and antigen. The data were evaluated using Biacore BIAevaluation software using a 1:1 Langmuir Model Fit (Rmax:Global Fit; RI:Local Fit). Kinetics information such as kₐ (Association Rate constant), kd (Dissociation Rate constant), and KD (Equillibrium Dissociation constant) was obtained from the fit. […] Methods for testing the humanized antibody for reduced immunogenicity in a human, as compared to the donor antibody, are known in the art and described herein.

| Binder | Kd [1] | koff [1] | kon [1] | Kd [2] | koff [2] | kon [2] |
| --- | --- | --- | --- | --- | --- | --- |
| murine anti-human C5a antibody (antibody, V domains shown, also called murine anti-C5a antibody; murine anti-C5a antibody counterpart) VH: EVQLQQSGPELVKPGSSVKISCKASGYTFTDYSMDWVKQSHGKSLEWIGAINPNSGGTNYSQKFKDKATLTVDKSSSTAYMELRSLTSEDSAVYYCASSGSYDGYYAMDYWGQGTSVTVSS VL: DIVMTQSPASLAVSLGQRATISCRASESVDSYGNSFMHWYQQKPGQPPKLLIYRASNLESGIPARFSGSGSRTDFTLTINPVEADDVATYYCQQSNEDPYTFGGGTKLEIKR | ~0.512 nM | ~0.00141 s⁻¹ | ~2.76e+06 M⁻¹ s⁻¹ | – | – | – |
| humanized anti-human C5a antibody (antibody, V domains shown, also called humanized anti-C5a antibody; the humanized antibody) VH: QVQLVQSGAEVKKPGASVKVSCKASGYTFTDYSMDWVRQAPGQGLEWMGAINPNSGGTNYNQKFKDRVTMTRDTSTSTVYMELSSLRSEDTAVYYCARSGSYDGYYAMDYWGQGTTVTVSS VL: DIQMTQSPSSLSASVGDRVTITCRASESVDSYGNSFMHWYQQKPGKAPKLLIYRASNLESGVPSRFSGSGSGTDFTLTISSLQPEDFATYYCQQSNEDPYTFGGGTKVEIK | – | – | – | ~0.298 nM | ~0.000576 s⁻¹ | ~1.93e+06 M⁻¹ s⁻¹ |
